Numbered stars: 1 amine (or outer) side, 2 acyl side, 3 side chain; on linkers, the order of the positions; unused ones are H or OH. Bridge positions count the residues as written; N and C are the ends. Side chains are listed from the residue outwards. Ends that are not written are not given here. * marks the point of attachment. C20 diacid = O=C(O)CCCCCCCCCCCCCCCCCCC(=O)*; γGlu = O=C(O)[C@H](CCC(=O)[*:2])N[*:1]
T1: human amylin receptor (amylin 3(a) receptor: human calcitonin receptor with RAMP-3) (human, UniProt P30988 25-474; O60896 24-148)
T1 construct: whole, on cells; the functional assay (Assay IIa) used the whole cells; also called hAmylin-R; hAmylinR
T1 sequence (looked up) 1: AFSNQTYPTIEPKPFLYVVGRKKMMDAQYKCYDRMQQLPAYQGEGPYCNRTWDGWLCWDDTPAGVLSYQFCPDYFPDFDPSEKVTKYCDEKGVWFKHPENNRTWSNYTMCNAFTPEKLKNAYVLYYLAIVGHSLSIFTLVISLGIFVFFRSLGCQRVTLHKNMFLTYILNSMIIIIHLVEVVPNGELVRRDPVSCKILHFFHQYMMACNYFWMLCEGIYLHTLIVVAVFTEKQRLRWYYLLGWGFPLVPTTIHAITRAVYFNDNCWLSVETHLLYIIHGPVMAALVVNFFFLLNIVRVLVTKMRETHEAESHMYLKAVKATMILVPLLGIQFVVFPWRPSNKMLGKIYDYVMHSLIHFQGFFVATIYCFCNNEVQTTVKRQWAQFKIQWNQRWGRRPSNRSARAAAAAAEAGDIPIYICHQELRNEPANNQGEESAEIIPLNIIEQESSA
T1 sequence (looked up) 2: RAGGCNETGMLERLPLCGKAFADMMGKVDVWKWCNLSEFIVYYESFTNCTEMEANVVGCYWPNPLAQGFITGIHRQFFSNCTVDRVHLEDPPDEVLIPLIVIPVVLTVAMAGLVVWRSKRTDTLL

T2: human calcitonin receptor (human, UniProt P30988 25-474)
T2 sequence (looked up): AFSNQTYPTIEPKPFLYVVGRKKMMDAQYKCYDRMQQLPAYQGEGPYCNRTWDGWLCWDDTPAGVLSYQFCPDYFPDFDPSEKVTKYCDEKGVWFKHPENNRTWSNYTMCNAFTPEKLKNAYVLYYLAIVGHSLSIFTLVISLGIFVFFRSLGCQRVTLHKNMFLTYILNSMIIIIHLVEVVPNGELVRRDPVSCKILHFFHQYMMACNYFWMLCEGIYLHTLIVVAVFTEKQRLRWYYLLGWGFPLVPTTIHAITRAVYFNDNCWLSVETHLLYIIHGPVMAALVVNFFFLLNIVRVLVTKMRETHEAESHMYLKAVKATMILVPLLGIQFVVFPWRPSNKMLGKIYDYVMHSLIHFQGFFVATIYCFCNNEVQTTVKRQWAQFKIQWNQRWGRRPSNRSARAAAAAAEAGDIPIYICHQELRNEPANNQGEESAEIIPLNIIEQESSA


Columns and labels:
[1] = target: T1, human amylin receptor (amylin 3(a) …); assay: SPA competition, displacement of 125I-rat amylin from membranes of BHK cells with the human amylin 3(a) receptor
Protocol: The binding assay was performed using scintillation proximity assay (SPA) beads (RPNQ0001) from PerkinElmer and cell membranes from the Amylin 3(a)/CRE-luc cells (as described in Assay (II)) were used. Membranes were prepared in the following way; the cells were rinsed with PBS and incubated with Versene for approximately 5 min before harvesting. The cells were flushed with PBS and the cell-suspension was centrifuged for 5 min at 1000 rpm. Cells were homogenized (ultrathurrax) in a buffer containing 20 mM Na-HEPES and 10 mM EDTA (pH 7.4) and centrifuged at 20.000 rpm for 15 min. The resulting pellet was resuspended, homogenized and centrifuged (20.000 rpm, 15 min) in a buffer containing 20 mM Na-HEPES and 0.1 mM EDTA (pH 7.4, buffer 2). The resulting pellet was resuspended in buffer 2 and protein concentration was measured (BCA protein Assay, Pierce). The homogenate was kept cold during the whole procedure. The membranes were kept at −80° C. until use. The assay was performed in a 384 well Optiplate (PerkinElmer) in a total volume of 40 ul. Membranes were mixed with SPA beads. Final concentration of membranes 35 ng/μL final and SPA beads was 0.05 mg/well. Test-compounds were dissolved in DMSO and further diluted in assay buffer (50 mM Hepes, pH 7.4, 1 mM CaCl2, 5 mM MgCl₂, 0.1% OA and 0.02% Tween20). […] The final mixture was incubated with shaking at 400 rpm for 120 min at 25° C. prior to centrifugation (1500 rpm, 10 min). Samples were analyzed on TopCounter™ (Packard). The IC₅₀ was calculated using (one site binding competition analysis) GraphPad Prism5 as a measure of receptor affinity.

[2] = target: T2, human calcitonin receptor; assay: cell-based or functional assay
[3] = target: T1, human amylin receptor (amylin 3(a) …); assay: cell-based or functional assay

IC50 [1] [nM] | Ratio hCT/hAmylin funct. [2] | hCTR funct. EC50 [2] [nM] | hAmylin-R funct. EC50 [3] [nM] | Binder
0.321 | 1.2 | 0.07 | 0.06 | {C20 diacid-γGlu}-KCNTATCATQRLAEFLRHSSPNFGPILPPTNVGSNTP-NH2 (disulfide 2-7; SMILES CC[C@H](C)[C@H](NC(=O)[C@@H]1CCCN1C(=O)CNC(=O)[C@H](Cc1ccccc1)NC(=O)[C@H](CC(N)=O)NC(=O)[C@@H]1CCCN1C(=O)[C@H](CO)NC(=O)[C@H](CO)NC(=O)[C@H](Cc1c[nH]cn1)NC(=O)[C@H](CCCNC(=N)N)NC(=O)[C@H](CC(C)C)NC(=O)[C@H](Cc1ccccc1)NC(=O)[C@H](CCC(=O)O)NC(=O)[C@H](C)NC(=O)[C@H](CC(C)C)NC(=O)[C@H](CCCNC(=N)N)NC(=O)[C@H](CCC(N)=O)NC(=O)[C@@H](NC(=O)[C@H](C)NC(=O)[C@@H]1CSSC[C@H](NC(=O)[C@H](CCCCN)NC(=O)CC[C@H](NC(=O)CCCCCCCCCCCCCCCCCCC(=O)O)C(=O)O)C(=O)N[C@@H](CC(N)=O)C(=O)N[C@@H]([C@@H](C)O)C(=O)N[C@@H](C)C(=O)N[C@@H]([C@@H](C)O)C(=O)N1)[C@@H](C)O)C(=O)N[C@@H](CC(C)C)C(=O)N1CCC[C@H]1C(=O)N1CCC[C@H]1C(=O)N[C@H](C(=O)N[C@@H](CC(N)=O)C(=O)N[C@H](C(=O)NCC(=O)N[C@@H](CO)C(=O)N[C@@H](CC(N)=O)C(=O)N[C@H](C(=O)N1CCC[C@H]1C(N)=O)[C@@H](C)O)C(C)C)[C@@H](C)O, also called compound 4)
1.18 | 12 | 2.7 | 0.224 | K([γGlu-γGlu-C20 diacid])CNTATCATQRLADFLRHSSPNFGAPLSSTNVGSDTY-NH2 (disulfide 2-7; N-terminus assumed; SMILES CC(C)C[C@H](NC(=O)[C@H](CCCNC(=N)N)NC(=O)[C@H](CCC(N)=O)NC(=O)[C@@H](NC(=O)[C@H](C)NC(=O)[C@@H]1CSSC[C@H](NC(=O)[C@@H](N)CCCCNC(=O)CC[C@H](NC(=O)CC[C@H](NC(=O)CCCCCCCCCCCCCCCCCCC(=O)O)C(=O)O)C(=O)O)C(=O)N[C@@H](CC(N)=O)C(=O)N[C@@H]([C@@H](C)O)C(=O)N[C@@H](C)C(=O)N[C@@H]([C@@H](C)O)C(=O)N1)[C@@H](C)O)C(=O)N[C@@H](C)C(=O)N[C@@H](CC(=O)O)C(=O)N[C@@H](Cc1ccccc1)C(=O)N[C@@H](CC(C)C)C(=O)N[C@@H](CCCNC(=N)N)C(=O)N[C@@H](Cc1c[nH]cn1)C(=O)N[C@@H](CO)C(=O)N[C@@H](CO)C(=O)N1CCC[C@H]1C(=O)N[C@@H](CC(N)=O)C(=O)N[C@@H](Cc1ccccc1)C(=O)NCC(=O)N[C@@H](C)C(=O)N1CCC[C@H]1C(=O)N[C@@H](CC(C)C)C(=O)N[C@@H](CO)C(=O)N[C@@H](CO)C(=O)N[C@H](C(=O)N[C@@H](CC(N)=O)C(=O)N[C@H](C(=O)NCC(=O)N[C@@H](CO)C(=O)N[C@@H](CC(=O)O)C(=O)N[C@H](C(=O)N[C@@H](Cc1ccc(O)cc1)C(N)=O)[C@@H](C)O)C(C)C)[C@@H](C)O, also called compound 1)
0.915 | 2.2 | 0.528 | 0.243 | {C20 diacid-γGlu}-KCNTATCATQRLAEFLRHSSPNFGAILPSTNVGSETY-NH2 (disulfide 2-7, also called compound 33)
0.374 | 1 | 0.16 | 0.162 | {C20 diacid-γGlu}-KCNTATCATQRLAEFLRHSSPNFGAPLSSTNVGSNTP-NH2 (disulfide 2-7; SMILES CC(C)C[C@H](NC(=O)[C@H](CCCNC(=N)N)NC(=O)[C@H](CCC(N)=O)NC(=O)[C@@H](NC(=O)[C@H](C)NC(=O)[C@@H]1CSSC[C@H](NC(=O)[C@H](CCCCN)NC(=O)CC[C@H](NC(=O)CCCCCCCCCCCCCCCCCCC(=O)O)C(=O)O)C(=O)N[C@@H](CC(N)=O)C(=O)N[C@@H]([C@@H](C)O)C(=O)N[C@@H](C)C(=O)N[C@@H]([C@@H](C)O)C(=O)N1)[C@@H](C)O)C(=O)N[C@@H](C)C(=O)N[C@@H](CCC(=O)O)C(=O)N[C@@H](Cc1ccccc1)C(=O)N[C@@H](CC(C)C)C(=O)N[C@@H](CCCNC(=N)N)C(=O)N[C@@H](Cc1c[nH]cn1)C(=O)N[C@@H](CO)C(=O)N[C@@H](CO)C(=O)N1CCC[C@H]1C(=O)N[C@@H](CC(N)=O)C(=O)N[C@@H](Cc1ccccc1)C(=O)NCC(=O)N[C@@H](C)C(=O)N1CCC[C@H]1C(=O)N[C@@H](CC(C)C)C(=O)N[C@@H](CO)C(=O)N[C@@H](CO)C(=O)N[C@H](C(=O)N[C@@H](CC(N)=O)C(=O)N[C@H](C(=O)NCC(=O)N[C@@H](CO)C(=O)N[C@@H](CC(N)=O)C(=O)N[C@H](C(=O)N1CCC[C@H]1C(N)=O)[C@@H](C)O)C(C)C)[C@@H](C)O, also called compound 5)
0.996 | 5.7 | 0.729 | 0.128 | {C20 diacid-γGlu}-KCNTATCATQRLAEFLRHSSPNFGPILPPTNVGSNTY-NH2 (disulfide 2-7; SMILES CC[C@H](C)[C@H](NC(=O)[C@@H]1CCCN1C(=O)CNC(=O)[C@H](Cc1ccccc1)NC(=O)[C@H](CC(N)=O)NC(=O)[C@@H]1CCCN1C(=O)[C@H](CO)NC(=O)[C@H](CO)NC(=O)[C@H](Cc1c[nH]cn1)NC(=O)[C@H](CCCNC(=N)N)NC(=O)[C@H](CC(C)C)NC(=O)[C@H](Cc1ccccc1)NC(=O)[C@H](CCC(=O)O)NC(=O)[C@H](C)NC(=O)[C@H](CC(C)C)NC(=O)[C@H](CCCNC(=N)N)NC(=O)[C@H](CCC(N)=O)NC(=O)[C@@H](NC(=O)[C@H](C)NC(=O)[C@@H]1CSSC[C@H](NC(=O)[C@H](CCCCN)NC(=O)CC[C@H](NC(=O)CCCCCCCCCCCCCCCCCCC(=O)O)C(=O)O)C(=O)N[C@@H](CC(N)=O)C(=O)N[C@@H]([C@@H](C)O)C(=O)N[C@@H](C)C(=O)N[C@@H]([C@@H](C)O)C(=O)N1)[C@@H](C)O)C(=O)N[C@@H](CC(C)C)C(=O)N1CCC[C@H]1C(=O)N1CCC[C@H]1C(=O)N[C@H](C(=O)N[C@@H](CC(N)=O)C(=O)N[C@H](C(=O)NCC(=O)N[C@@H](CO)C(=O)N[C@@H](CC(N)=O)C(=O)N[C@H](C(=O)N[C@@H](Cc1ccc(O)cc1)C(N)=O)[C@@H](C)O)C(C)C)[C@@H](C)O, also called compound 6)
0.674 | 4.5 | 1.16 | 0.255 | {C20 diacid-γGlu}-KCNTATCATQRLAEFLRHSSPNFGAPLSSTNVGSNTY-NH2 (disulfide 2-7; SMILES CC(C)C[C@H](NC(=O)[C@H](CCCNC(=N)N)NC(=O)[C@H](CCC(N)=O)NC(=O)[C@@H](NC(=O)[C@H](C)NC(=O)[C@@H]1CSSC[C@H](NC(=O)[C@H](CCCCN)NC(=O)CC[C@H](NC(=O)CCCCCCCCCCCCCCCCCCC(=O)O)C(=O)O)C(=O)N[C@@H](CC(N)=O)C(=O)N[C@@H]([C@@H](C)O)C(=O)N[C@@H](C)C(=O)N[C@@H]([C@@H](C)O)C(=O)N1)[C@@H](C)O)C(=O)N[C@@H](C)C(=O)N[C@@H](CCC(=O)O)C(=O)N[C@@H](Cc1ccccc1)C(=O)N[C@@H](CC(C)C)C(=O)N[C@@H](CCCNC(=N)N)C(=O)N[C@@H](Cc1c[nH]cn1)C(=O)N[C@@H](CO)C(=O)N[C@@H](CO)C(=O)N1CCC[C@H]1C(=O)N[C@@H](CC(N)=O)C(=O)N[C@@H](Cc1ccccc1)C(=O)NCC(=O)N[C@@H](C)C(=O)N1CCC[C@H]1C(=O)N[C@@H](CC(C)C)C(=O)N[C@@H](CO)C(=O)N[C@@H](CO)C(=O)N[C@H](C(=O)N[C@@H](CC(N)=O)C(=O)N[C@H](C(=O)NCC(=O)N[C@@H](CO)C(=O)N[C@@H](CC(N)=O)C(=O)N[C@H](C(=O)N[C@@H](Cc1ccc(O)cc1)C(N)=O)[C@@H](C)O)C(C)C)[C@@H](C)O, also called compound 7) [N^α1-[(4S)-4-carboxy-4-(19-carboxynonadecanoylamino)butanoyl]-[Glu14,Arg17,Pro21,Pro26]-h-amylin]

Reference: patent publication US20140087995A1 (published 2014)
